Assay results taken from patent publication US20190292517A1.

Biological target: CD3 on human peripheral blood T cells (human) (UniProt P07766)
Test: cell-based or functional assay

fold expansion of human T cells at day 13, 0.5 ug anti-CD3 on APC-MS (1:1 with anti-CD28) [fold] | fold expansion of human T cells at day 13, 1 ug anti-CD3 on APC-MS (1:1 with anti-CD28) [fold] | fold expansion of human T cells at day 13, 5 ug anti-CD3 on APC-MS (1:1 with anti-CD28) [fold] | Substance
600 to 700 | 300 to 400 | 600 to 800 | muromonab (OKT3), anti-CD3 antibody
– | 300 to 400 | 600 to 800 | HIT3a, antibody recognizing 17-19 kD epsilon-chain of CD3 within the CD3 antigen/T cell antigen receptor (TCR) complex
– | – | 600 to 800 | UCHT1, monoclonal antibody recognizing a 20 kDa subunit of the TCR complex within CD3e
